According to the supplement of paper PMC10567573:

B1: COX4I1 (parent)
chain: VAHVKHLSASQKALKEKEKASWSS
B2: SMTNL2 (parent)
chain: AFTMAENLANCERLIEVEDMMVMG

Variants of: B1
Assay: protein stability index of a GFP-peptide fusion (GPS, HEK-293T) (PSI 1-6); higher = more stable
Conditions: c terminus: a fixed tail appended
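Note: lentivirally expressed fusions sorted by FACS into six bins by GFP to DsRed ratio, PSI derived from sequencing read proportions per bin multiplied by bin number.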

Protein stability index of substitutions, site by site:
K17: T 3.21; S 3.23; I 2.83; P 3.32; E 3.9; G 3.86; R 3.49; A 3.62; N 3.81; H 3.26; F 3.31; D 3.92; M 3.01; Q 3.53; L 2.71; C 2.83
K12: G 2.65; R 3.07; F 2.92; P 3.58; H 2.84; S 3.64; W 2.69; A 2.61; Q 3.86; Y 2.98; N 3.13; L 3.32; M 2.77; E 3.52; V 3.77; I 2.71; D 3.88; C 2.33; T 3.32
E16: W 2.31; I 2.54; G 2.38; P 2.75; Q 2.72; F 2.21; V 2.03; R 2.8; N 3.05; H 3.56; L 2.36; Y 2.56; M 2.46; A 3.67; K 3.17; D 3.48; S 2.64; T 2.93; C 2
A9: E 4.11; W 2.47; Q 3.01; I 3.35; R 3.7; F 3.55; H 3.19; M 3.03; Y 2.06; S 3.59; C 2.42; P 3.19; K 3.07; L 3.23; G 2.38; V 3.09; T 2.93; N 3.43; D 3.87
S10: I 2.37; V 2.94; F 2.83; C 1.97; W 2.26; Q 3.12; G 3.46; L 2.58; A 2.88; M 2.94; H 3.05; Y 2.28; K 2.66; R 3.16; P 3.39; E 3.95; T 2.56; D 4.01; N 3.98
Q11: W 2.92; F 2.56; A 3.28; V 2.65; K 2.99; Y 2.08; H 3.26; D 3.21; C 3.21; T 2.86; G 2.67; I 2.94; S 3.35; E 3.65; L 2.96; P 3.6; N 3.4; R 2.83; M 3.25
H6: W 2.32; V 2.96; Q 4.45; S 3.38; D 3.81; A 3.24; K 3.51; G 3.45; C 3.21; N 3.38; Y 2.5; R 3.41; T 2.97; F 2.78; M 3.12; L 3.3; I 3.24; E 3.87; P 3.98
K15: D 3.96; P 2.99; R 3.33; G 3.18; A 3.78; S 4.04; L 3.29; M 3.94; N 3.77; W 2.77; F 3.21; Q 3.5; Y 3; C 3.21; H 3.85; I 3.82; E 4.08; T 3.48; V 3.2
L14: C 3.12; Y 3.09; I 3.46; D 3.92; R 3.7; P 3.41; F 2.88; W 3.2; G 3.1; M 3.62; A 3.2; V 3.38; S 3.05; E 3.54; Q 3.48; K 3.65; N 3.98; T 2.89; H 3.61
S8: E 3.6; Q 3.24; A 3.57; G 3.64; N 3.53; R 3.11; W 2.35; H 3.22; F 2.2; D 3.86; T 3.1; I 3.1; M 2.92; P 3.62; L 3.02; Y 2.55; C 2.41; K 3.46; V 2.7
A13: R 2.69; W 2.08; S 3.2; M 2.95; H 3.17; D 3.82; Y 3.06; V 3.09; K 3.16; P 3.8; L 2.91; C 3.37; G 3.3; N 3.58; F 2.39; E 3.64; I 2.75; Q 2.63; T 3.27
A2: P 3.77; N 2.81; H 3.72; M 3.19; L 3.38; R 2.77; G 3.29; F 2.23; E 3.77; W 2.92; I 2.29; C 3.44; Q 3.46; D 3.6; K 3.02; S 3.25; Y 2.3; T 3.86; V 2.72
K5: E 3.69; F 2.45; A 3.67; Y 2.55; D 3.27; S 3.72; Q 3.12; V 3.1; P 3.64; H 2.93; G 3.88; C 2.61; N 3.45; L 3.28; I 2.4; T 3.66; R 2.65; W 2.65; M 2.78
V4: Y 3.27; F 2.83; N 3.64; M 3.55; H 3.74; C 3.34; E 3.71; K 3.48; L 2.88; A 4.1; Q 2.73; D 3.45; T 4.15; S 3.35; I 3.03; W 3.25; G 3.47; R 2.91
V1: D 3.98; L 2.95; A 3.05; Y 2.7; K 3.57; T 4.03; F 2.34; H 3.25; R 3.83; Q 4.05; E 3.79; S 3.73; P 3.53; I 3.35; W 2.41; G 4.06; N 3.96; C 3.06; M 3.05
H3: S 3.27; Y 2.7; T 3.77; R 3.19; P 3.73; V 3.13; I 2.58; F 2.52; D 4.11; N 4.5; K 3.16; A 3.44; W 2.1; Q 3.28; C 2.75; E 4.11; M 3.43; G 3.22; L 2.6
L7: D 4.03; G 3.99; K 3.43; C 3.47; H 3.72; V 3.68; M 3.4; F 3.42; P 3.91; E 4.3; Y 3.36; Q 3.36; S 3.6; T 3.54; A 2.27; R 2.99; I 3.79; N 3.85; W 2.84

Variants of: B2
Assay: as above
Conditions: c terminus: a fixed tail appended

Protein stability index of substitutions, site by site:
G24: K 2.31; F 2.22; L 1.74; Y 1.27; I 1.64; E 2.93; T 1.68; S 2; V 1.03; M 1.96; P 2.07; H 1.59; Q 2.71; N 2.45; R 2.47
